Test results published in patent US20170051041A1.

What was measured:
Test in all cases: SPR single-cycle kinetics; reference WT-FVIII-C2
[1] = target: FVIII-C2 mutein R2220A (human) (UniProt P00451)
[2] = target: FVIII-C2 mutein F2200A (human) (UniProt P00451)
[3] = target: FVIII-C2 mutein S2254A (human) (UniProt P00451)
[4] = target: FVIII-C2 mutein L2252A (human) (UniProt P00451)
[5] = target: FVIII-C2 mutein Q2316A (human) (UniProt P00451)
[6] = target: FVIII-C2 mutein E2228A (human) (UniProt P00451)
[7] = target: FVIII-C2 mutein H2315A (human) (UniProt P00451)

UniProt P00451, sequence (P00451 2189-2351 F2219A): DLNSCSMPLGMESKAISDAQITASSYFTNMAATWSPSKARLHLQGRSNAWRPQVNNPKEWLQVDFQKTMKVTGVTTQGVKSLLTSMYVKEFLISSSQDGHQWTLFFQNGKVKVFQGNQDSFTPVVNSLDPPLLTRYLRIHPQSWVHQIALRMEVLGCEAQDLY
Fab fragment of human anti-FVIII mAb BO2C11, sequence (VH): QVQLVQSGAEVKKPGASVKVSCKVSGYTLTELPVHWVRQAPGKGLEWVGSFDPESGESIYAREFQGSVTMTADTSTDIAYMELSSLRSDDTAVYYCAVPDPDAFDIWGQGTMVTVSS
Fab fragment of human anti-FVIII mAb BO2C11, sequence (VL): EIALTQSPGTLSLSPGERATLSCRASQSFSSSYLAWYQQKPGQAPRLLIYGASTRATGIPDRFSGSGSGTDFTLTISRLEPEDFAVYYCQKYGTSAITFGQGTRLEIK

kd(mutein)/kd(WT) [1] [fold]	kd(mutein)/kd(WT) [2] [fold]	Substance	other results
4.5		Murine anti-FVIII C2 domain mAb ESH8 (antibody)	
	> 2	Fab fragment of human anti-FVIII mAb BO2C11	
	> 2	Murine anti-FVIII C2 domain mAb I109 (antibody)	
	> 2	Murine anti-FVIII C2 domain mAb 3D12 (antibody)	
3		Murine anti-FVIII C2 domain mAb 2-117 (GMA-8003) (antibody)	
2.7		Murine anti-FVIII C2 domain mAb ESH4 (antibody)	
	> 2	Murine anti-FVIII C2 domain mAb 1B5 (GMA-8008) (antibody)	kd(mutein)/kd(WT) [3]: > 2 fold; kd(mutein)/kd(WT) [4]: > 2 fold; kd(mutein)/kd(WT) [5]: > 2 fold; kd(mutein)/kd(WT) [6]: > 2 fold; kd(mutein)/kd(WT) [7]: > 2 fold
